In patent EP4786492A1:
Substitutions are numbered along the chain they refer to.

Legend:
[1] = target: human DLL3 protein expressed on CHO-K1 recombinant cells (human DLL3 extracellular segment fused to EpCAM transmembrane and intracellular regions) (human) (UniProt Q9NYJ7); test: FACS, CHO-K1 hDLL3 cells, 0.0064 nM antibody
[2] = target: monkey DLL3 on CHO-K1-cyno DLL3 cells (cynomolgus monkey); test: FACS, CHO-K1-cyno DLL3 cells, 0.032 nM antibody
[3] = target: monkey DLL3 on CHO-K1-cyno DLL3 cells (cynomolgus monkey); test: FACS, CHO-K1-cyno DLL3 cells, 0.0064 nM antibody
[4] = target: human DLL3 protein expressed on CHO-K1 recombinant cells (human DLL3 extracellular segment fused to EpCAM transmembrane and intracellular regions) (human) (UniProt Q9NYJ7); test: FACS, CHO-K1 hDLL3 cells, 20 nM antibody
[5] = target: DLL3 endogenously expressed on NCI-H82 cells (UniProt Q9NYJ7); test: FACS on NCI-H82 cells; antibody 0.0064 nM
[6] = target: DLL3 endogenously expressed on NCI-H82 cells (UniProt Q9NYJ7); test: FACS on NCI-H82 cells; antibody 4 nM
[7] = target: monkey DLL3 on CHO-K1-cyno DLL3 cells (cynomolgus monkey); test: FACS, CHO-K1-cyno DLL3 cells, 0.00128 nM antibody
[8] = target: DLL3 endogenously expressed on NCI-H82 cells (UniProt Q9NYJ7); test: FACS on NCI-H82 cells; antibody 20 nM
[9] = target: mouse DLL3 on CHO-K1-mDLL3 cells (mouse) (UniProt O88516); test: FACS, CHO-K1-mDLL3 cells, 0.8 nM antibody
[10] = target: DLL3 endogenously expressed on NCI-H82 cells (UniProt Q9NYJ7); test: FACS on NCI-H82 cells; antibody 0.8 nM
[11] = target: mouse DLL3 on CHO-K1-mDLL3 cells (mouse) (UniProt O88516); test: FACS, CHO-K1-mDLL3 cells, 20 nM antibody
[12] = target: mouse DLL3 on CHO-K1-mDLL3 cells (mouse) (UniProt O88516); test: FACS, CHO-K1-mDLL3 cells, 0.16 nM antibody
[13] = target: DLL3 endogenously expressed on NCI-H82 cells (UniProt Q9NYJ7); test: FACS on NCI-H82 cells; antibody 0.032 nM
[14] = target: human DLL3 protein expressed on CHO-K1 recombinant cells (human DLL3 extracellular segment fused to EpCAM transmembrane and intracellular regions) (human) (UniProt Q9NYJ7); test: FACS, CHO-K1 hDLL3 cells, 100 nM antibody
[15] = target: human delta-like ligand 3 (DLL3) on SHP77 cells (human) (UniProt Q9NYJ7); test: FACS on SHP77 cells
[16] = target: mouse DLL3 on CHO-K1-mDLL3 cells (mouse) (UniProt O88516); test: FACS, CHO-K1-mDLL3 cells, 0.032 nM antibody
[17] = target: mouse DLL3 on CHO-K1-mDLL3 cells (mouse) (UniProt O88516); test: FACS, CHO-K1-mDLL3 cells, 0.00128 nM antibody
[18] = target: human DLL3 protein expressed on CHO-K1 recombinant cells (human DLL3 extracellular segment fused to EpCAM transmembrane and intracellular regions) (human) (UniProt Q9NYJ7); test: FACS, CHO-K1 hDLL3 cells, 0.032 nM antibody
[19] = target: DLL3 endogenously expressed on NCI-H82 cells (UniProt Q9NYJ7); test: FACS on NCI-H82 cells; antibody 100 nM
[20] = target: human DLL3 protein expressed on CHO-K1 recombinant cells (human DLL3 extracellular segment fused to EpCAM transmembrane and intracellular regions) (human) (UniProt Q9NYJ7); test: FACS, CHO-K1 hDLL3 cells, 0.16 nM antibody
[21] = target: mouse DLL3 on CHO-K1-mDLL3 cells (mouse) (UniProt O88516); test: FACS, CHO-K1-mDLL3 cells, 4 nM antibody
[22] = target: DLL3 endogenously expressed on NCI-H82 cells (UniProt Q9NYJ7); test: FACS on NCI-H82 cells; antibody 0.16 nM
[23] = target: human DLL3 protein expressed on CHO-K1 recombinant cells (human DLL3 extracellular segment fused to EpCAM transmembrane and intracellular regions) (human) (UniProt Q9NYJ7); test: FACS, CHO-K1 hDLL3 cells, 0.8 nM antibody
[24] = target: monkey DLL3 on CHO-K1-cyno DLL3 cells (cynomolgus monkey); test: FACS, CHO-K1-cyno DLL3 cells, 20 nM antibody
[25] = target: DLL3 endogenously expressed on NCI-H82 cells (UniProt Q9NYJ7); test: FACS on NCI-H82 cells; antibody 0.00128 nM
[26] = target: monkey DLL3 on CHO-K1-cyno DLL3 cells (cynomolgus monkey); test: FACS, CHO-K1-cyno DLL3 cells, 0.8 nM antibody
[27] = target: human DLL3 protein expressed on CHO-K1 recombinant cells (human DLL3 extracellular segment fused to EpCAM transmembrane and intracellular regions) (human) (UniProt Q9NYJ7); test: FACS, CHO-K1 hDLL3 cells, 4 nM antibody
[28] = target: human DLL1 protein (Acro, Cat. No. DL1-H52H8) (human) (UniProt O00548); test: ELISA, coated hDLL1; maximum over 0.1, 1, 10, 100 nM antibody
[29] = target: human DLL4 protein (Acro, Cat. No. DL4-H5227) (human) (UniProt Q9NR61); test: ELISA, coated hDLL4; maximum over 0.1, 1, 10, 100 nM antibody
[30] = target: monkey DLL3 on CHO-K1-cyno DLL3 cells (cynomolgus monkey); test: FACS, CHO-K1-cyno DLL3 cells, 100 nM antibody
[31] = target: monkey DLL3 on CHO-K1-cyno DLL3 cells (cynomolgus monkey); test: FACS, CHO-K1-cyno DLL3 cells, 4 nM antibody
[32] = target: mouse DLL3 on CHO-K1-mDLL3 cells (mouse) (UniProt O88516); test: FACS, CHO-K1-mDLL3 cells, 0.0064 nM antibody
[33] = target: human DLL3 protein (extracellular segment, His tag) (human) (UniProt Q9NYJ7); test: SPR (Biacore 8K), antibody captured on Protein A chip, DLL3 antigen in solution, 1:1 Langmuir fit
[34] = target: mouse DLL3 on CHO-K1-mDLL3 cells (mouse) (UniProt O88516); test: FACS, CHO-K1-mDLL3 cells, 100 nM antibody
[35] = target: human DLL3 protein expressed on CHO-K1 recombinant cells (human DLL3 extracellular segment fused to EpCAM transmembrane and intracellular regions) (human) (UniProt Q9NYJ7); test: FACS, CHO-K1 hDLL3 cells, 0.00128 nM antibody
[36] = target: monkey DLL3 on CHO-K1-cyno DLL3 cells (cynomolgus monkey); test: FACS, CHO-K1-cyno DLL3 cells, 0.16 nM antibody
[37] = target: human DLL3 endogenously expressed on SHP77 and NCI-H82 cells (human) (UniProt Q9NYJ7); test: FACS SHP77 cells, 4 nM
[38] = target: human DLL3 endogenously expressed on SHP77 and NCI-H82 cells (human) (UniProt Q9NYJ7); test: FACS SHP77 cells, 0.00128 nM
[39] = target: human DLL3 endogenously expressed on SHP77 and NCI-H82 cells (human) (UniProt Q9NYJ7); test: FACS SHP77 cells, 0.8 nM
[40] = target: human DLL3 endogenously expressed on SHP77 and NCI-H82 cells (human) (UniProt Q9NYJ7); test: FACS SHP77 cells, 100 nM
[41] = target: human DLL3 endogenously expressed on SHP77 and NCI-H82 cells (human) (UniProt Q9NYJ7); test: FACS SHP77 cells, 0.16 nM
[42] = target: human DLL3 endogenously expressed on SHP77 and NCI-H82 cells (human) (UniProt Q9NYJ7); test: FACS SHP77 cells, 0.0064 nM
[43] = target: human DLL3 endogenously expressed on SHP77 and NCI-H82 cells (human) (UniProt Q9NYJ7); test: FACS SHP77 cells, 0.032 nM
[44] = target: human DLL3 endogenously expressed on SHP77 and NCI-H82 cells (human) (UniProt Q9NYJ7); test: FACS SHP77 cells, 20 nM

Chain of human delta-like ligand 3 (DLL3) on SHP77 cells (human) (Q9NYJ7 27-618, stated change not applied): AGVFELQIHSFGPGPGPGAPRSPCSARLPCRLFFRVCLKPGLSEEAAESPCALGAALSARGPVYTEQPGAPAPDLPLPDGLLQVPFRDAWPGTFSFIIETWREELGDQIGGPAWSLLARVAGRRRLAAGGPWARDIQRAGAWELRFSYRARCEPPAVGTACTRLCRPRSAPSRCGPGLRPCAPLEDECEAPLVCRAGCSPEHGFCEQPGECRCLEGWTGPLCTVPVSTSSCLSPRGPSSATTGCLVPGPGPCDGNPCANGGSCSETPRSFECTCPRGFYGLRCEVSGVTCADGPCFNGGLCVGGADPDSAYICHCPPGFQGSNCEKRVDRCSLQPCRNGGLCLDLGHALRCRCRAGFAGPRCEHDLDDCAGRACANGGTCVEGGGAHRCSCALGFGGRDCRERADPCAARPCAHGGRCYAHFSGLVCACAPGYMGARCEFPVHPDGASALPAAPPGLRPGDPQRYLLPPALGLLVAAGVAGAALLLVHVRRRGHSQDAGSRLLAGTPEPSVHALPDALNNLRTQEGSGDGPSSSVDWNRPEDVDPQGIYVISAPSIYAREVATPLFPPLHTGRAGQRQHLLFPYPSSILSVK
Chain of DLL3 endogenously expressed on NCI-H82 cells (Q9NYJ7 27-618): as the sequence (Q9NYJ7 27-618, stated change not applied) above
Chain of human DLL3 endogenously expressed on SHP77 and NCI-H82 cells (human) (Q9NYJ7 27-618): as the sequence (Q9NYJ7 27-618, stated change not applied) above
Chain of mouse DLL3 on CHO-K1-mDLL3 cells (mouse) (O88516 other isoform, or with tags, fused parts or gaps limits assumed): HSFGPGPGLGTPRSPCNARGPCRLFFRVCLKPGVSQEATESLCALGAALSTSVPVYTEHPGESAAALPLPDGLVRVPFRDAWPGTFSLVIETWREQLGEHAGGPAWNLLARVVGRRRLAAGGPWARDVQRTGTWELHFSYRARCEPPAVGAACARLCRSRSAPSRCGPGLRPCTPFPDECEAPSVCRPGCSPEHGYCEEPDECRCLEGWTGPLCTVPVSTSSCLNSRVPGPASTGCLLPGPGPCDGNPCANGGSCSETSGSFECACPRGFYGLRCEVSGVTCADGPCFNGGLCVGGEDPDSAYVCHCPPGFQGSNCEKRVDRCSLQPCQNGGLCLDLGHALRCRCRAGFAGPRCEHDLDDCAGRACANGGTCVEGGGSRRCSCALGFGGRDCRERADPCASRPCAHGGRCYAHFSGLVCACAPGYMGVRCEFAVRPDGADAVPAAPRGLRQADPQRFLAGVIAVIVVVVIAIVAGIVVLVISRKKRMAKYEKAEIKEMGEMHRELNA
Chain of monkey DLL3 on CHO-K1-cyno DLL3 cells (cynomolgus monkey) (chain, as listed by the source limits assumed): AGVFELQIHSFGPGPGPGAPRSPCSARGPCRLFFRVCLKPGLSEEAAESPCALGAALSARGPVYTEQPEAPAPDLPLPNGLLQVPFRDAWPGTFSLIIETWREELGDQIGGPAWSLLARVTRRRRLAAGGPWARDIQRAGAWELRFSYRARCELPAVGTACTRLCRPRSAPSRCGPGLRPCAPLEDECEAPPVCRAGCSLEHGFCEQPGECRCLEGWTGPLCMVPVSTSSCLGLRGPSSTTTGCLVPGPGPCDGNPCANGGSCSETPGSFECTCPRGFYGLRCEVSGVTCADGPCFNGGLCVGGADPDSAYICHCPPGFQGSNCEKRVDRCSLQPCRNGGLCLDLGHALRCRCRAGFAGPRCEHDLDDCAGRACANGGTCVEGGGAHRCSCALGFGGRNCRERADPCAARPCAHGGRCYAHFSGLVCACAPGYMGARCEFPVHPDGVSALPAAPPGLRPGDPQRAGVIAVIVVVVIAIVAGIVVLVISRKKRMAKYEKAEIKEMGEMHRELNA
Chain of human DLL3 protein (extracellular segment, His tag) (human) (Q9NYJ7 27-492): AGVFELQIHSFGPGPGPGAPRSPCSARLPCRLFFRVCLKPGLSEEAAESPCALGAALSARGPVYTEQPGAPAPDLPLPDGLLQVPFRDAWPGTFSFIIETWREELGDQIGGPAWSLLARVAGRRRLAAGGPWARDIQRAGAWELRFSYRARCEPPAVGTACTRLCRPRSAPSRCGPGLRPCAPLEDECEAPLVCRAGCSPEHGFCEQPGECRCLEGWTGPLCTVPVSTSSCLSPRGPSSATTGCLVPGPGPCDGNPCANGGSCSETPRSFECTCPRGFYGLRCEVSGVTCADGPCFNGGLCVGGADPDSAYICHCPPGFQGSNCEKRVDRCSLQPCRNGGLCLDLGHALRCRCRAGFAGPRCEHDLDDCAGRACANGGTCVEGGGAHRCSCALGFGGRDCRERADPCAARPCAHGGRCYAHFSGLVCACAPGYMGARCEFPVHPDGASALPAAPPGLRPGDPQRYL
Chain of human DLL3 protein expressed on CHO-K1 recombinant cells (human DLL3 extracellular segment fused to EpCAM transmembrane and intracellular regions) (human) (Q9NYJ7 other isoform, or with tags, fused parts or gaps limits assumed): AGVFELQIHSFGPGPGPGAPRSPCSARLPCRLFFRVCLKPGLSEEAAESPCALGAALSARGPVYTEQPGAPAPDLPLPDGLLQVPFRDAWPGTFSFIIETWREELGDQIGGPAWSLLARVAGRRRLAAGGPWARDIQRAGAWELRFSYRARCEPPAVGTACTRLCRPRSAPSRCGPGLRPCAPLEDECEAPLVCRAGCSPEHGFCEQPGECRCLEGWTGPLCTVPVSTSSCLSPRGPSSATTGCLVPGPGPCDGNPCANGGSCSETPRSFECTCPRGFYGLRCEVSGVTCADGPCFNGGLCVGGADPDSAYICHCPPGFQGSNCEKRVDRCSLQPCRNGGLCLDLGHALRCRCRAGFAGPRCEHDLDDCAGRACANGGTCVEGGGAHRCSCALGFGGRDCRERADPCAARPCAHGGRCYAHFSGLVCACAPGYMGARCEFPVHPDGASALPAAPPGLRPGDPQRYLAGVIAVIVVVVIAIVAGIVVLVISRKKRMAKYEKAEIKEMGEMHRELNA
Chain of human DLL1 protein (Acro, Cat. No. DL1-H52H8) (human) (O00548 18-540 limits assumed): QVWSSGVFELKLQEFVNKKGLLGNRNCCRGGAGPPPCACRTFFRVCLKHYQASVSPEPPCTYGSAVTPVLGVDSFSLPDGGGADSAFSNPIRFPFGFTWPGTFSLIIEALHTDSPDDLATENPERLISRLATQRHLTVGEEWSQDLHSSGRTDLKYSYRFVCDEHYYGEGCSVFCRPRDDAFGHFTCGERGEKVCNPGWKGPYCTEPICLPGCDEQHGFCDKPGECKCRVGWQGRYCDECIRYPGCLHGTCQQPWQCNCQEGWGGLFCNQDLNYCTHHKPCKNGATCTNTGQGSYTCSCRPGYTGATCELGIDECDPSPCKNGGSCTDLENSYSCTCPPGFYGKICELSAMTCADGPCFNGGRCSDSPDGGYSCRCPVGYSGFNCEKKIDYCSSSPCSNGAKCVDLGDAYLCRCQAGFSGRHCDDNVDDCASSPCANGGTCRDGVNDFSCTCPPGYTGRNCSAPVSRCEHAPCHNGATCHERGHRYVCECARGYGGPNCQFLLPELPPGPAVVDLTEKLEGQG
Chain of human DLL4 protein (Acro, Cat. No. DL4-H5227) (human) (Q9NR61 27-524 limits assumed): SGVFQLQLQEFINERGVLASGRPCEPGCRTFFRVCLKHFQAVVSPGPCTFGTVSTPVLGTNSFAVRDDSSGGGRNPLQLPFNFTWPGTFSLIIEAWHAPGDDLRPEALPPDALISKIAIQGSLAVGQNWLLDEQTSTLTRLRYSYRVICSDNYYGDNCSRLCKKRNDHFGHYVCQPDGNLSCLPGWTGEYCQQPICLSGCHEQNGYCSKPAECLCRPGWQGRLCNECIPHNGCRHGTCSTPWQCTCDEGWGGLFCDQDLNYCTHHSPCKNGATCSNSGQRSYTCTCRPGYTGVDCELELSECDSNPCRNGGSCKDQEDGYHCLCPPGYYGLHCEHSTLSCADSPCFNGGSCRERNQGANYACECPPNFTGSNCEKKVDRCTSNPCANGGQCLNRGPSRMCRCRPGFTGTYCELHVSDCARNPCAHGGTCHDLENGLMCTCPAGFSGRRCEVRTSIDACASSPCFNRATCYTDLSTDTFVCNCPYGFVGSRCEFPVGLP

B1: Hab006VL1VH4-hFc (scFv, part only; not given: VL-VH linker and human IgG1 Fc, V domains shown, not shown: another chain or arm of the molecule; a dimerising Fc or GST; small tags and cut ends)
VL: DIQMTQSPSSLSASVGDRVTITCRATKSISKYLAWYQQKPGKAPKLLIFSGSTLQSGVPSRFSGSGSGTDFTLTISSLQPEDFATYYCQQHHEYPYTFGGGTKVEIK
VH: EVQLVQSGAEVKKPGASVKVSCKASGYTFTSYWMHWVRQAPGQRLEWMGVIDPSDSLANYNQEFKGRVTLTVDTSSSTAYMELSSLRSEDTAVYYCARDSTVVAPMDYWGQGTTVTVSS
MFI [1]: 716 MFI
MFI [2]: 1730 MFI
MFI [3]: 1380 MFI
MFI [4]: 13600 MFI
MFI [5]: 155
MFI [6]: 291
MFI [7]: 750 MFI
MFI [8]: 519
MFI [9]: 529 MFI
MFI [10]: 412
MFI [11]: 627 MFI
MFI [12]: 406 MFI
MFI [13]: 242
MFI [14]: 14300 MFI
MFI at 0.00128 nM [15]: 208 MFI
MFI at 0.0064 nM [15]: 275 MFI
MFI at 0.032 nM [15]: 458 MFI
MFI at 0.16 nM [15]: 938 MFI
MFI at 0.8 nM [15]: 1310 MFI
MFI at 4 nM [15]: 1410 MFI
MFI at 20 nM [15]: 1600 MFI
MFI at 100 nM [15]: 1890 MFI
MFI [16]: 246 MFI
MFI [17]: 126 MFI
MFI [18]: 1050 MFI
MFI [19]: 626
MFI [20]: 3100 MFI
MFI [21]: 615 MFI
MFI [22]: 367
MFI [23]: 7270 MFI
MFI [24]: 9060 MFI
MFI [25]: 126
MFI [26]: 7840 MFI
MFI [27]: 12700 MFI
Emax of OD450 nm binding value [28]: 0.07 OD450 nm
Emax of OD450 nm binding value [29]: 0.15 OD450 nm
MFI [30]: 9720 MFI
MFI [31]: 8590 MFI
MFI [32]: 187 MFI
Kd [33]: 0.568 nM
koff [33]: 0.000221 s⁻¹
kon [33]: 389000 M⁻¹ s⁻¹
MFI [34]: 589 MFI
MFI [35]: 419 MFI
MFI [36]: 5000 MFI

B2: Hab006VL4VH1-hFc (scFv, part only; not given: scFv linker and human IgG1 Fc, V domains shown, not shown: another chain or arm of the molecule; a dimerising Fc or GST; small tags and cut ends)
VL: DIVMTQSPDSLAVSLGERATINCRATKSISKYLAWYQQKPGQTNKLLIFSGSTLQSGVPDRFSGSGSGTDFTLTISSLQAEDVAVYYCQQHHEYPYTFGGGTKVEIK
VH: B1 VH with L70I, S76A
MFI [1]: 411 MFI
MFI [2]: 1110 MFI
MFI [3]: 424 MFI
MFI [4]: 14500 MFI
MFI [5]: 157
MFI [6]: 454
MFI [7]: 239 MFI
MFI [8]: 504
MFI [9]: 404 MFI
MFI [10]: 434
MFI [11]: 523 MFI
MFI [12]: 278 MFI
MFI [13]: 252
MFI [14]: 15200 MFI
MFI at 0.00128 nM [15]: 215 MFI
MFI at 0.0064 nM [15]: 305 MFI
MFI at 0.032 nM [15]: 554 MFI
MFI at 0.16 nM [15]: 1060 MFI
MFI at 0.8 nM [15]: 1410 MFI
MFI at 4 nM [15]: 1490 MFI
MFI at 20 nM [15]: 1660 MFI
MFI at 100 nM [15]: 1900 MFI
MFI [16]: 165 MFI
MFI [17]: 98 MFI
MFI [18]: 1130 MFI
MFI [19]: 596
MFI [20]: 4120 MFI
MFI [21]: 485 MFI
MFI [22]: 397
MFI [23]: 11300 MFI
MFI [24]: 9050 MFI
MFI [25]: 123
MFI [26]: 7500 MFI
MFI [27]: 13600 MFI
Emax of OD450 nm binding value [28]: 0.07 OD450 nm
Emax of OD450 nm binding value [29]: 0.08 OD450 nm
MFI [30]: 10500 MFI
MFI [31]: 8440 MFI
MFI [32]: 110 MFI
Kd [33]: 0.286 nM
koff [33]: 0.000119 s⁻¹
kon [33]: 415000 M⁻¹ s⁻¹
MFI [34]: 554 MFI
MFI [35]: 227 MFI
MFI [36]: 3350 MFI

B3: mab002 scFv-hFc (Fc fusion, not shown: small tags and cut ends; a dimerising Fc or GST)
scFv (part 1 of 2): QIVLTQSPAIMSASPGEKVTMTCSARSSVSYMQWYQQKSGTSPKRWIYDTSKLASGVPARFSGSGSGTSYSLTISTMEAEDAATYYCQQWSSDPPTFGGGTKLEIK
scFv (part 2 of 2): QIQLVQSGPELKKPGETVKISCKASGYTFTNYGMNWLKQAPGKGLKWMGWINTYTGESTYADDFKGRFAFSLETSASTVYLQINNLKNEDMATYFCARMGDGYYDFTMDYWGQGTSVTVSS
MFI [37]: 535 MFI
MFI [38]: 197 MFI
MFI [39]: 498 MFI
MFI [40]: 596 MFI
MFI [41]: 518 MFI
MFI [42]: 255 MFI
MFI [43]: 371 MFI
MFI [44]: 548 MFI

B4: mab005 scFv-hFc (Fc fusion, not shown: small tags and cut ends; a dimerising Fc or GST)
scFv (part 1 of 2): DIVLTQSPATLSVTPGDSVSLSCRASQSVSNDLHWYQQKSHESPRLLIKYASQSISGIPSRFSGSGSGTDFTLTINSVETEDFGMYFCQQSNNWPYTFGGGTKLEMK
scFv (part 2 of 2): QVQLQQSGAELMKPGASVTLSCKATGYTLPGYWIEWVKQRPGHGLEWIGEILPGSSSANYNEKFKGKATFTADTSSNTAYMQLSSLTTEDSAIYYCASTYGTSLDYWGQGTTLTVSS
MFI [37]: 451 MFI
MFI [38]: 117 MFI
MFI [39]: 404 MFI
MFI [40]: 543 MFI
MFI [41]: 287 MFI
MFI [42]: 125 MFI
MFI [43]: 172 MFI
MFI [44]: 486 MFI
